The values below come from US10654918B2, “Inflammatory disease diagnosis and methods of treatment using down-regulators of lipopolysaccharide-responsive beige-like anchor” (University of South Florida, priority 2013, dated 2020).

Series [1] relates to MAPKs [p42/44, p38 and Jun N-terminal kinase (JNK)]. The series can be described thus: MAPK Western blot in Raji and Raji9 cells. The format is cell-based, human. Particulars: LRBA KD Raji cells, LPS. The method, then: FIGS. 47(A) and (B). Knockdown of LRBA deregulates MAPKs. Knockdown of LRBA upregulates p38 and JNK but downregulates p42/44. Half million of Raji or Raji9 cells were put in a well in a 6 well plate. After 24 hr, cells were treated with or without LPS for the time as indicated. 200 μl RIPA buffer with protease inhibitors and PMSF. (A) Western blot of cells was performed. 30 μl of cell extracts were loaded to ach well. Phosphorylated protein levels were normalized to β-Actin shown as the numbers between the two blots. (B) curves based on the Western blots. Quantity One software was used to quantify the levels.
Like NF-κB, the mitogen-activated protein kinases (MAPKs) act as funnels to collect many stress-activated signals but function as bottle necks to filter and process these signals, and then have many diverse targets(26). Specifically, MAPKs are critical downstream hubs of the TLR4/LPS signal transduction(27) and may be affected by LRBA deficiency. The expression and activation of the three major MAPKs [p42/44, p38 and Jun N-terminal kinase (JNK)] were examined in Raji cells. […] The phospho-p42/44 measured by flow cytometry intracellular staining also is decreased (data not shown). […] The Drosophila MAPK and JNK have 82% and 78% identities with their human orthologues, respectively.

The test system of the next series is A549 cells. The series can be described thus: Western blot of A549 and A549 pLAsiGFP cells treated with LPS. The format is cell-based, human. Particulars: for TLR4 levels (Western blot): vs untransfected A549 cells. The method, then:
(§1) FIGS. 4A-B are a blot and graph showing knockdown of LRBA increases the TNFα levels in A549 cells (adenocarcinomic human alveolar basal epithelial cells). A549 cells and A549 pLAsiGFP cells (stably transfected with shRNA plasmid against LRBA) were treated with LPS (1 μg/ml). The TNFα concentrations were detected by Western blot. Cells were cultured in 6-well plates and stimulated with LPS (1 μg/ml) for different time as shown, then lysed with RIPA buffer. Western blots were carried out. TNFα antibody (sc-1351. Santa Cruz Biotechnology, Santa Cruz, USA) was used at 1:500 ratio and incubated at 4° C. overnight. BioRad ChemiDoc XRS and Quantity One software were used to acquire gel image and measure band relative intensity. (A) Western blot. 1. A549 No LPS, 2. A549 LPS 30 min, 3. A549 LPS 1 hr, 4. A549 LPS 2 h, 5. A549 LPS 4 h, 6. A549 LPS 24 h, 7. A549 pLAsiGFP LPS 2 h, 8. A549 pLAsiGFP LPS 4 h, 9. A549 pLAsiGFP LPS 24 h. (B) Band intensity quantification from A.
as §1, with “FIG. 17(A)-(B)” for “FIGS. 4A-B”, “series of graphs” for “blot and graph”, “TLR4” for “TNFα”, “cells.” for “cells (adenocarcinomic human alveolar basal epithelial cells).”
FIGS. 31(A) and (B) are a blot and graph showing knockdown of LRBA decreases the total NFκB levels in A549 cells. A549 LIRII cells (stably transfected with pLRBA-VHS) and A549 pLAsiGFP cells (stably transfected with shRNA plasmid against LRBA) were treated with LPS (1 μg/ml). The NFκB concentrations were detected by Western blot. Cells were cultured in 6-well plates and stimulated with LPS (1 μg/ml) for different time as shown, then lysed with RIPA buffer. Western blots were carried out. NF-κB2 p100/p52 Antibody #4882 (Cell Signaling Technology, Danvers, Mass., USA) was used at 1:500 ratio and incubated at 4° C. overnight. BioRad ChemiDoc XRS and Quantity One software were used to acquire gel image and measure band relative intensity. A. Western blot. B. Band intensity quantification from A.

B1: LRBA shRNA: shRNA plasmid against LRBA; targeted LRBA sequence SEQ ID No. 15 GGGATATTGTAGAAACTGTCTTT (nucleic acid)
sense: GGGATATTGTAGAAACTGTCTTTTTCAAGAGAAAAGACAGTTTCTACAATATCCCTTTTTT
antisense: CCCTATAACATCTTTGACAGAAAAAGTTCTCTTTTCTGTCAAAGATGTTATAGGGAAAAAA
On to B1, for which, in series [1], the JNK kinase activity entry is reported as “increased”, the p38 kinase activity entry was “increased” and the p42/44 kinase activity result is “reduced”. Moreover, the “TLR4 levels (Western blot)” value in the series with A549 cells (2 h and 4 h after LPS stimulation (1 μg/ml)) is given as “increases”. Further, the “TLR4 levels (Western blot)” value in the series on A549 cells (24 h after LPS) is listed as “no difference”. Moreover, the “total NFκB levels (Western blot)” value with A549 cells (LPS 1 μg/ml, A549 pLAsiGFP cells) was “decreases”. Besides, in the series with A549 cells (LPS 1 μg/ml, A549 pLAsiGFP vs A549), the “TNFα levels (Western blot)” value was “increases”.
